{"source": "the supplement of paper PMC10567573", "parents": {"B1": {"name": "TRIM15 (parent)", "chain": "QSSGKILLCPLCQEEEQAETPMAP"}}}
{"variants_of": "B1", "test": "protein stability index of a GFP-peptide fusion (GPS, HEK-293T) (PSI 1-6); higher = more stable", "details": "c terminus: a fixed tail appended"}
{"variant": "QSSGCILLCPLCQEEEQAETPMAP", "note": "[K5C]", "protein stability index": 3.54}
{"variant": "QSSGMILLCPLCQEEEQAETPMAP", "note": "[K5M]", "protein stability index": 2.41}
{"variant": "QSSGGILLCPLCQEEEQAETPMAP", "note": "[K5G]", "protein stability index": 3.77}
{"variant": "QSSGPILLCPLCQEEEQAETPMAP", "note": "[K5P]", "protein stability index": 3.65}
{"variant": "QSSGDILLCPLCQEEEQAETPMAP", "note": "[K5D]", "protein stability index": 3.72}
{"variant": "QSSGVILLCPLCQEEEQAETPMAP", "note": "[K5V]", "protein stability index": 2.85}
{"variant": "QSSGAILLCPLCQEEEQAETPMAP", "note": "[K5A]", "protein stability index": 3.27}
{"variant": "QSSGHILLCPLCQEEEQAETPMAP", "note": "[K5H]", "protein stability index": 3.17}
{"variant": "QSSGIILLCPLCQEEEQAETPMAP", "note": "[K5I]", "protein stability index": 2.17}
{"variant": "QSSGEILLCPLCQEEEQAETPMAP", "note": "[K5E]", "protein stability index": 4.56}
{"variant": "QSSGLILLCPLCQEEEQAETPMAP", "note": "[K5L]", "protein stability index": 2.86}
{"variant": "QSSGQILLCPLCQEEEQAETPMAP", "note": "[K5Q]", "protein stability index": 3.98}
{"variant": "QSSGSILLCPLCQEEEQAETPMAP", "note": "[K5S]", "protein stability index": 3.44}
{"variant": "QSSGTILLCPLCQEEEQAETPMAP", "note": "[K5T]", "protein stability index": 3.06}
{"variant": "QSSGNILLCPLCQEEEQAETPMAP", "note": "[K5N]", "protein stability index": 3.46}
{"variant": "QSSGYILLCPLCQEEEQAETPMAP", "note": "[K5Y]", "protein stability index": 2.36}
{"variant": "QSSGFILLCPLCQEEEQAETPMAP", "note": "[K5F]", "protein stability index": 2.1}
{"variant": "QSSGRILLCPLCQEEEQAETPMAP", "note": "[K5R]", "protein stability index": 3.22}
{"variant": "QSSGWILLCPLCQEEEQAETPMAP", "note": "[K5W]", "protein stability index": 2.45}
{"variant": "QSSGKILLCFLCQEEEQAETPMAP", "note": "[P10F]", "protein stability index": 2.13}
{"variant": "QSSGKILLCQLCQEEEQAETPMAP", "note": "[P10Q]", "protein stability index": 3.77}
{"variant": "QSSGKILLCYLCQEEEQAETPMAP", "note": "[P10Y]", "protein stability index": 2.71}
{"variant": "QSSGKILLCELCQEEEQAETPMAP", "note": "[P10E]", "protein stability index": 4.06}
{"variant": "QSSGKILLCHLCQEEEQAETPMAP", "note": "[P10H]", "protein stability index": 3.42}
{"variant": "QSSGKILLCVLCQEEEQAETPMAP", "note": "[P10V]", "protein stability index": 1.82}
{"variant": "QSSGKILLCCLCQEEEQAETPMAP", "note": "[P10C]", "protein stability index": 3.77}
{"variant": "QSSGKILLCILCQEEEQAETPMAP", "note": "[P10I]", "protein stability index": 1.99}
{"variant": "QSSGKILLCMLCQEEEQAETPMAP", "note": "[P10M]", "protein stability index": 2.75}
{"variant": "QSSGKILLCALCQEEEQAETPMAP", "note": "[P10A]", "protein stability index": 3.35}
{"variant": "QSSGKILLCSLCQEEEQAETPMAP", "note": "[P10S]", "protein stability index": 3.56}
{"variant": "QSSGKILLCGLCQEEEQAETPMAP", "note": "[P10G]", "protein stability index": 4.31}
{"variant": "QSSGKILLCNLCQEEEQAETPMAP", "note": "[P10N]", "protein stability index": 4.4}
{"variant": "QSSGKILLCPLCQEVEQAETPMAP", "note": "[E15V]", "protein stability index": 2.35}
{"variant": "QSSGKILLCPLCQETEQAETPMAP", "note": "[E15T]", "protein stability index": 2.77}
{"variant": "QSSGKILLCPLCQEQEQAETPMAP", "note": "[E15Q]", "protein stability index": 3.54}
{"variant": "QSSGKILLCPLCQEKEQAETPMAP", "note": "[E15K]", "protein stability index": 3.05}
{"variant": "QSSGKILLCPLCQEDEQAETPMAP", "note": "[E15D]", "protein stability index": 2.97}
{"variant": "QSSGKILLCPLCQEFEQAETPMAP", "note": "[E15F]", "protein stability index": 2}
{"variant": "QSSGKILLCPLCQELEQAETPMAP", "note": "[E15L]", "protein stability index": 2.5}
{"variant": "QSSGKILLCPLCQEHEQAETPMAP", "note": "[E15H]", "protein stability index": 2.98}
{"variant": "QSSGKILLCPLCQECEQAETPMAP", "note": "[E15C]", "protein stability index": 2.49}
{"variant": "QSSGKILLCPLCQENEQAETPMAP", "note": "[E15N]", "protein stability index": 2.28}
{"variant": "QSSGKILLCPLCQEGEQAETPMAP", "note": "[E15G]", "protein stability index": 2.9}
{"variant": "QSSGKILLCPLCQEAEQAETPMAP", "note": "[E15A]", "protein stability index": 3.17}
{"variant": "QSSGKILLCPLCQEREQAETPMAP", "note": "[E15R]", "protein stability index": 1.81}
{"variant": "QSSGKILLCPLCQEPEQAETPMAP", "note": "[E15P]", "protein stability index": 2.84}
{"variant": "QSSGKILLCPLCQESEQAETPMAP", "note": "[E15S]", "protein stability index": 2.75}
{"variant": "QSSGKILLCPLCQEMEQAETPMAP", "note": "[E15M]", "protein stability index": 2.25}
{"variant": "QSSGKILLCPPCQEEEQAETPMAP", "note": "[L11P]", "protein stability index": 5.27}
{"variant": "QSSGKILLCPRCQEEEQAETPMAP", "note": "[L11R]", "protein stability index": 4.3}
{"variant": "QSSGKILLCPNCQEEEQAETPMAP", "note": "[L11N]", "protein stability index": 5.01}
{"variant": "QSSGKILLCPCCQEEEQAETPMAP", "note": "[L11C]", "protein stability index": 3.28}
{"variant": "QSSGKILLCPGCQEEEQAETPMAP", "note": "[L11G]", "protein stability index": 4.63}
{"variant": "QSSGKILLCPDCQEEEQAETPMAP", "note": "[L11D]", "protein stability index": 4.98}
{"variant": "QSSGKILLCPQCQEEEQAETPMAP", "note": "[L11Q]", "protein stability index": 4.24}
{"variant": "QSSGKILLCPSCQEEEQAETPMAP", "note": "[L11S]", "protein stability index": 4.7}
{"variant": "QSSGKILLCPFCQEEEQAETPMAP", "note": "[L11F]", "protein stability index": 3.42}
{"variant": "QSSGKILLCPICQEEEQAETPMAP", "note": "[L11I]", "protein stability index": 3.94}
{"variant": "QSSGKILLCPYCQEEEQAETPMAP", "note": "[L11Y]", "protein stability index": 3.01}
{"variant": "QSSGKILLCPECQEEEQAETPMAP", "note": "[L11E]", "protein stability index": 4.72}
{"variant": "QSSGKILLCPWCQEEEQAETPMAP", "note": "[L11W]", "protein stability index": 3.52}
{"variant": "QSSGKILLCPHCQEEEQAETPMAP", "note": "[L11H]", "protein stability index": 3.68}
{"variant": "QSSGKILLCPKCQEEEQAETPMAP", "note": "[L11K]", "protein stability index": 4.54}
{"variant": "QSSGKILLCPTCQEEEQAETPMAP", "note": "[L11T]", "protein stability index": 4.81}
{"variant": "QSSGKILLCPVCQEEEQAETPMAP", "note": "[L11V]", "protein stability index": 4.09}
{"variant": "QSSGKILLCPMCQEEEQAETPMAP", "note": "[L11M]", "protein stability index": 3.78}
{"variant": "QSSGKILTCPLCQEEEQAETPMAP", "note": "[L8T]", "protein stability index": 3.48}
{"variant": "QSSGKILECPLCQEEEQAETPMAP", "note": "[L8E]", "protein stability index": 5.11}
{"variant": "QSSGKILDCPLCQEEEQAETPMAP", "note": "[L8D]", "protein stability index": 4.91}
{"variant": "QSSGKILCCPLCQEEEQAETPMAP", "note": "[L8C]", "protein stability index": 3.46}
{"variant": "QSSGKILPCPLCQEEEQAETPMAP", "note": "[L8P]", "protein stability index": 4.34}
{"variant": "QSSGKILQCPLCQEEEQAETPMAP", "note": "[L8Q]", "protein stability index": 4.23}
{"variant": "QSSGKILHCPLCQEEEQAETPMAP", "note": "[L8H]", "protein stability index": 3.96}
{"variant": "QSSGKILMCPLCQEEEQAETPMAP", "note": "[L8M]", "protein stability index": 3.79}
{"variant": "QSSGKILKCPLCQEEEQAETPMAP", "note": "[L8K]", "protein stability index": 3.83}
{"variant": "QSSGKILNCPLCQEEEQAETPMAP", "note": "[L8N]", "protein stability index": 4.45}
{"variant": "QSSGKILSCPLCQEEEQAETPMAP", "note": "[L8S]", "protein stability index": 3.99}
{"variant": "QSSGKILYCPLCQEEEQAETPMAP", "note": "[L8Y]", "protein stability index": 3.28}
{"variant": "QSSGKILACPLCQEEEQAETPMAP", "note": "[L8A]", "protein stability index": 4.32}
{"variant": "QSSGKILGCPLCQEEEQAETPMAP", "note": "[L8G]", "protein stability index": 4.08}
{"variant": "QSSGKILRCPLCQEEEQAETPMAP", "note": "[L8R]", "protein stability index": 3.34}
{"variant": "QSSGKILWCPLCQEEEQAETPMAP", "note": "[L8W]", "protein stability index": 2.93}
{"variant": "QSSGKNLLCPLCQEEEQAETPMAP", "note": "[I6N]", "protein stability index": 4.13}
{"variant": "QSSGKDLLCPLCQEEEQAETPMAP", "note": "[I6D]", "protein stability index": 4.77}
{"variant": "QSSGKELLCPLCQEEEQAETPMAP", "note": "[I6E]", "protein stability index": 3.62}
{"variant": "QSSGKHLLCPLCQEEEQAETPMAP", "note": "[I6H]", "protein stability index": 3.15}
{"variant": "QSSGKQLLCPLCQEEEQAETPMAP", "note": "[I6Q]", "protein stability index": 3.37}
{"variant": "QSSGKLLLCPLCQEEEQAETPMAP", "note": "[I6L]", "protein stability index": 3.79}
{"variant": "QSSGKGLLCPLCQEEEQAETPMAP", "note": "[I6G]", "protein stability index": 3.53}
{"variant": "QSSGKALLCPLCQEEEQAETPMAP", "note": "[I6A]", "protein stability index": 4.26}
{"variant": "QSSGKCLLCPLCQEEEQAETPMAP", "note": "[I6C]", "protein stability index": 3.94}
{"variant": "QSSGKYLLCPLCQEEEQAETPMAP", "note": "[I6Y]", "protein stability index": 4.04}
{"variant": "QSSGKSLLCPLCQEEEQAETPMAP", "note": "[I6S]", "protein stability index": 3.39}
{"variant": "QSSGKPLLCPLCQEEEQAETPMAP", "note": "[I6P]", "protein stability index": 4.11}
